Laboratory results: US20110020379A1
Positions of bridges follow the written chain, without caps; N, C: chain ends. No end group written: not given here.

What was measured:
[1] = target: bovine serum albumin (bovine) (UniProt P02769); test: phage ELISA, 10^9 phagemid per well, BSA-only wells
[2] = target: bovine serum albumin (bovine) (UniProt P02769); test: phage ELISA, 10^10 phagemid per well, BSA-only wells
[3] = target: bovine serum albumin (bovine) (UniProt P02769); test: phage ELISA, 10^8 phagemid per well, BSA-only wells
[4] = target: unrelated control antibody; test: phage ELISA, 10^8 phagemid per well, wells coated with control mAb
[5] = target: unrelated control antibody; test: phage ELISA, 10^10 phagemid per well, wells coated with control mAb
[6] = target: unrelated control antibody; test: phage ELISA, 10^9 phagemid per well, wells coated with control mAb

bovine serum albumin (bovine), sequence (P02769 25-607 limits assumed): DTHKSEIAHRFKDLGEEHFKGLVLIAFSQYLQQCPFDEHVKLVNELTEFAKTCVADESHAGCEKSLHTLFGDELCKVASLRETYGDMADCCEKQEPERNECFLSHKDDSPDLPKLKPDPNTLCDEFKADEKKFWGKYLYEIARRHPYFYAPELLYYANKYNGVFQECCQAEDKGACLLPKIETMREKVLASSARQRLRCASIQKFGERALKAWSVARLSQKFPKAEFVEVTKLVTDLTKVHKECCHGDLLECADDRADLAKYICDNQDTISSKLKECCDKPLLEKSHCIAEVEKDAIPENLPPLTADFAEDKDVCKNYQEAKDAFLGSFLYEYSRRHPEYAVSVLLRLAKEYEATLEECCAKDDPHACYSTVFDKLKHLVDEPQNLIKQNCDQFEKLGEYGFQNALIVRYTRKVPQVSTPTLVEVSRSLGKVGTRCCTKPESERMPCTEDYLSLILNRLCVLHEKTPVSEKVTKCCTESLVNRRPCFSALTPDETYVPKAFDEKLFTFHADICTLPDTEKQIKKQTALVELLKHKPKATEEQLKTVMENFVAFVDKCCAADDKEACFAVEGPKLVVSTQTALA

CSFRYQWDMFRCS (disulfide 1-12 (inferred)) [phagemid CS1-11p]
ELISA (absorbance units) (absorbance units) [1]: 0.278 | ELISA (absorbance units) (absorbance units) [2]: 0.304 | ELISA (absorbance units) (absorbance units) [3]: 0.268 | ELISA (absorbance units) (absorbance units) [4]: 0.252 | ELISA (absorbance units) (absorbance units) [5]: 0.242 | ELISA (absorbance units) (absorbance units) [6]: 0.258

CSLFYLWDQDRCS (disulfide 1-12 (inferred)) [phagemid CS1-2p]
ELISA (absorbance units) (absorbance units) [1]: 0.277 | ELISA (absorbance units) (absorbance units) [2]: 0.327 | ELISA (absorbance units) (absorbance units) [3]: 0.264 | ELISA (absorbance units) (absorbance units) [4]: 0.188 | ELISA (absorbance units) (absorbance units) [5]: 0.228 | ELISA (absorbance units) (absorbance units) [6]: 0.199

B1: phagemid CS1-31p (peptide)
peptide: CSFFYSLCYCWCS
modifications: disulfide (positions not given here); also: disulfide cyclised, pairing of the four Cys not given here
ELISA (absorbance units) (absorbance units) [1]: 0.114 | ELISA (absorbance units) (absorbance units) [2]: 0.112 | ELISA (absorbance units) (absorbance units) [3]: 0.109 | ELISA (absorbance units) (absorbance units) [4]: 0.116 | ELISA (absorbance units) (absorbance units) [5]: 0.125 | ELISA (absorbance units) (absorbance units) [6]: 0.118

CSFRYLWDQDRCS (disulfide 1-12 (inferred)) [phagemid CS1-6p]
ELISA (absorbance units) (absorbance units) [1]: 0.27 | ELISA (absorbance units) (absorbance units) [2]: 0.275 | ELISA (absorbance units) (absorbance units) [3]: 0.254 | ELISA (absorbance units) (absorbance units) [4]: 0.173 | ELISA (absorbance units) (absorbance units) [5]: 0.203 | ELISA (absorbance units) (absorbance units) [6]: 0.172

CSGLYPWDMFRCS (disulfide 1-12 (inferred)) [phagemid CS1-9p]
ELISA (absorbance units) (absorbance units) [1]: 0.22 | ELISA (absorbance units) (absorbance units) [2]: 0.221 | ELISA (absorbance units) (absorbance units) [3]: 0.216 | ELISA (absorbance units) (absorbance units) [4]: 0.209 | ELISA (absorbance units) (absorbance units) [5]: 0.213 | ELISA (absorbance units) (absorbance units) [6]: 0.204

CSGLYPWDYFMCS (disulfide 1-12 (inferred)) [phagemid CS1-29p]
ELISA (absorbance units) (absorbance units) [1]: 0.147 | ELISA (absorbance units) (absorbance units) [2]: 0.141 | ELISA (absorbance units) (absorbance units) [3]: 0.127 | ELISA (absorbance units) (absorbance units) [4]: 0.125 | ELISA (absorbance units) (absorbance units) [5]: 0.148 | ELISA (absorbance units) (absorbance units) [6]: 0.136
